# In the supplement of paper PMC9112550, “Optimization of the antimicrobial peptide Bac7 by deep mutational scanning” (BMC Biology, 2022):
# System: Escherichia coli TOP10
# Experiment: shrunken log2 fold change of peptide-encoding DNA abundance (4.5 h post-induction vs induction); higher = less antimicrobial activity (less host growth inhibition)
# Settings: time post-induction: 4.5 h; library: site-saturation at positions 5, 18, 19, 20
# 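Also: peptides expressed intracellularly from a pBAD plasmid library in pooled LB shake-flask culture, induced with 0.3% L-arabinose, DNA abundance read by NGS, three biological replicates, DESeq2 with apeglm shrinkage.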
sequence,measurement,value
RRIRNRPPRLPRPRPRPFFAPRP,shrunken log2 fold change,0.201
RRIRFRPPRLPRPRPRPGMFPRP,shrunken log2 fold change,0.0382
RRIRNRPPRLPRPRPRPYYKPRP,shrunken log2 fold change,-1.46
RRIRARPPRLPRPRPRPNQPPRP,shrunken log2 fold change,0.0397
RRIRQRPPRLPRPRPRPGNFPRP,shrunken log2 fold change,0.0262
RRIRTRPPRLPRPRPRPIVRPRP,shrunken log2 fold change,-0.00141
RRIRYRPPRLPRPRPRPYAFPRP,shrunken log2 fold change,-0.0129
RRIRYRPPRLPRPRPRPDCGPRP,shrunken log2 fold change,-0.398
RRIRVRPPRLPRPRPRPWSTPRP,shrunken log2 fold change,0.00921
RRIRKRPPRLPRPRPRPQFHPRP,shrunken log2 fold change,0.119
RRIRPRPPRLPRPRPRPDAWPRP,shrunken log2 fold change,0.513
RRIRFRPPRLPRPRPRPDHTPRP,shrunken log2 fold change,-0.318
RRIRLRPPRLPRPRPRPAGIPRP,shrunken log2 fold change,-0.043
RRIRGRPPRLPRPRPRPSIYPRP,shrunken log2 fold change,0.302
RRIRIRPPRLPRPRPRPQVFPRP,shrunken log2 fold change,-0.0107
RRIRLRPPRLPRPRPRPPSTPRP,shrunken log2 fold change,0.00129
RRIRWRPPRLPRPRPRPCSYPRP,shrunken log2 fold change,-0.0533
RRIRGRPPRLPRPRPRPFTKPRP,shrunken log2 fold change,-0.282
RRIRDRPPRLPRPRPRPPRHPRP,shrunken log2 fold change,0.377
RRIRGRPPRLPRPRPRPRWQPRP,shrunken log2 fold change,0.994
RRIRWRPPRLPRPRPRPAFKPRP,shrunken log2 fold change,-0.00397
RRIRCRPPRLPRPRPRPDFFPRP,shrunken log2 fold change,0.035
RRIRTRPPRLPRPRPRPNLFPRP,shrunken log2 fold change,0.0121
RRIRLRPPRLPRPRPRPNAPPRP,shrunken log2 fold change,0.0456
RRIRLRPPRLPRPRPRPGERPRP,shrunken log2 fold change,0.33
RRIRIRPPRLPRPRPRPMWAPRP,shrunken log2 fold change,-0.0316
RRIRSRPPRLPRPRPRPSEYPRP,shrunken log2 fold change,-0.306
RRIRGRPPRLPRPRPRPYNTPRP,shrunken log2 fold change,0.328
RRIRKRPPRLPRPRPRPNQGPRP,shrunken log2 fold change,0.079
RRIRHRPPRLPRPRPRPTEHPRP,shrunken log2 fold change,-0.243
RRIRVRPPRLPRPRPRPQRKPRP,shrunken log2 fold change,0.0451
RRIRYRPPRLPRPRPRPNPAPRP,shrunken log2 fold change,0.0854
RRIRLRPPRLPRPRPRPIRYPRP,shrunken log2 fold change,-0.272
RRIRYRPPRLPRPRPRPQPHPRP,shrunken log2 fold change,-0.348
RRIRLRPPRLPRPRPRPREMPRP,shrunken log2 fold change,0.149
RRIRFRPPRLPRPRPRPGYPPRP,shrunken log2 fold change,0.0384
RRIRWRPPRLPRPRPRPEVWPRP,shrunken log2 fold change,0.966
RRIRMRPPRLPRPRPRPRQYPRP,shrunken log2 fold change,-0.0556
RRIRSRPPRLPRPRPRPRNTPRP,shrunken log2 fold change,-0.411
RRIRRRPPRLPRPRPRPDYVPRP,shrunken log2 fold change,0.0255
RRIRMRPPRLPRPRPRPKEVPRP,shrunken log2 fold change,0.00253
RRIRIRPPRLPRPRPRPSDQPRP,shrunken log2 fold change,-0.528
RRIRLRPPRLPRPRPRPGKDPRP,shrunken log2 fold change,-0.153
RRIRHRPPRLPRPRPRPGNEPRP,shrunken log2 fold change,-0.364
RRIRCRPPRLPRPRPRPEHIPRP,shrunken log2 fold change,-0.218
RRIRMRPPRLPRPRPRPIPIPRP,shrunken log2 fold change,0.138
RRIRFRPPRLPRPRPRPEIPPRP,shrunken log2 fold change,0.163
RRIRTRPPRLPRPRPRPDKHPRP,shrunken log2 fold change,-0.551
RRIRGRPPRLPRPRPRPQMIPRP,shrunken log2 fold change,1.83
RRIRTRPPRLPRPRPRPILMPRP,shrunken log2 fold change,-0.306
RRIRCRPPRLPRPRPRPIMNPRP,shrunken log2 fold change,-0.911
RRIRDRPPRLPRPRPRPWTQPRP,shrunken log2 fold change,-0.124
RRIRHRPPRLPRPRPRPDSFPRP,shrunken log2 fold change,-0.477
RRIRQRPPRLPRPRPRPKRAPRP,shrunken log2 fold change,0.0973
RRIRHRPPRLPRPRPRPQGKPRP,shrunken log2 fold change,-0.0805
RRIRIRPPRLPRPRPRPNKCPRP,shrunken log2 fold change,-0.438
RRIRTRPPRLPRPRPRPSAEPRP,shrunken log2 fold change,0.363
RRIRGRPPRLPRPRPRPSRHPRP,shrunken log2 fold change,0.0789
RRIRCRPPRLPRPRPRPTHNPRP,shrunken log2 fold change,0.124
RRIRRRPPRLPRPRPRPDDMPRP,shrunken log2 fold change,-0.039
RRIRRRPPRLPRPRPRPSGCPRP,shrunken log2 fold change,0.212
RRIRVRPPRLPRPRPRPDQCPRP,shrunken log2 fold change,0.0862
RRIRPRPPRLPRPRPRPQDKPRP,shrunken log2 fold change,-0.00457
RRIRDRPPRLPRPRPRPSLKPRP,shrunken log2 fold change,0.155
RRIRFRPPRLPRPRPRPLKQPRP,shrunken log2 fold change,0.053
RRIRHRPPRLPRPRPRPICHPRP,shrunken log2 fold change,-0.265
RRIRFRPPRLPRPRPRPDQYPRP,shrunken log2 fold change,-0.169
RRIRVRPPRLPRPRPRPTRPPRP,shrunken log2 fold change,0.822
RRIRVRPPRLPRPRPRPTCIPRP,shrunken log2 fold change,-0.372
RRIRRRPPRLPRPRPRPTMKPRP,shrunken log2 fold change,0.286
RRIRKRPPRLPRPRPRPLRKPRP,shrunken log2 fold change,0.968
RRIRERPPRLPRPRPRPFALPRP,shrunken log2 fold change,-0.256
RRIRRRPPRLPRPRPRPWTQPRP,shrunken log2 fold change,-0.0997
RRIRDRPPRLPRPRPRPLDWPRP,shrunken log2 fold change,0.0834
RRIRLRPPRLPRPRPRPKQYPRP,shrunken log2 fold change,-0.661
RRIRWRPPRLPRPRPRPQLKPRP,shrunken log2 fold change,0.147
RRIRGRPPRLPRPRPRPERQPRP,shrunken log2 fold change,0.101
RRIRPRPPRLPRPRPRPYWYPRP,shrunken log2 fold change,-0.958
RRIRSRPPRLPRPRPRPITVPRP,shrunken log2 fold change,-0.132
RRIRGRPPRLPRPRPRPSRAPRP,shrunken log2 fold change,0.553
RRIRQRPPRLPRPRPRPELLPRP,shrunken log2 fold change,0.534
RRIRLRPPRLPRPRPRPGPRPRP,shrunken log2 fold change,0.693
RRIRSRPPRLPRPRPRPKFHPRP,shrunken log2 fold change,-0.441
RRIRNRPPRLPRPRPRPCPQPRP,shrunken log2 fold change,0.0087
RRIRLRPPRLPRPRPRPEEPPRP,shrunken log2 fold change,0.0426
RRIRIRPPRLPRPRPRPYENPRP,shrunken log2 fold change,-0.255
RRIRNRPPRLPRPRPRPRRDPRP,shrunken log2 fold change,-0.0239
RRIRGRPPRLPRPRPRPQLAPRP,shrunken log2 fold change,1.19
RRIRGRPPRLPRPRPRPTSFPRP,shrunken log2 fold change,0.449
RRIRNRPPRLPRPRPRPQDFPRP,shrunken log2 fold change,-0.0385
RRIRTRPPRLPRPRPRPTSPPRP,shrunken log2 fold change,0.119
RRIRRRPPRLPRPRPRPVTIPRP,shrunken log2 fold change,0.297
RRIRARPPRLPRPRPRPSMHPRP,shrunken log2 fold change,0.163
RRIRWRPPRLPRPRPRPRLAPRP,shrunken log2 fold change,0.84
RRIRTRPPRLPRPRPRPFPAPRP,shrunken log2 fold change,0.299
RRIRLRPPRLPRPRPRPMLSPRP,shrunken log2 fold change,0.0192
RRIRRRPPRLPRPRPRPFLDPRP,shrunken log2 fold change,0.0172
RRIRFRPPRLPRPRPRPFDIPRP,shrunken log2 fold change,-0.182
RRIRIRPPRLPRPRPRPHWLPRP,shrunken log2 fold change,-0.49
RRIRERPPRLPRPRPRPDVGPRP,shrunken log2 fold change,-0.59
RRIRFRPPRLPRPRPRPPICPRP,shrunken log2 fold change,0.172
RRIRKRPPRLPRPRPRPTNFPRP,shrunken log2 fold change,0.111
RRIRGRPPRLPRPRPRPRMIPRP,shrunken log2 fold change,0.646
RRIRYRPPRLPRPRPRPFQWPRP,shrunken log2 fold change,0.0299
RRIRTRPPRLPRPRPRPSFEPRP,shrunken log2 fold change,-0.328
RRIRTRPPRLPRPRPRPAKFPRP,shrunken log2 fold change,-0.00176
RRIRGRPPRLPRPRPRPSVHPRP,shrunken log2 fold change,-0.00458
RRIRWRPPRLPRPRPRPSAVPRP,shrunken log2 fold change,0.6
RRIRSRPPRLPRPRPRPNLHPRP,shrunken log2 fold change,-0.219
RRIRYRPPRLPRPRPRPTWIPRP,shrunken log2 fold change,-1.08
RRIRDRPPRLPRPRPRPWWDPRP,shrunken log2 fold change,0.083
RRIRERPPRLPRPRPRPEAGPRP,shrunken log2 fold change,0.0425
RRIRERPPRLPRPRPRPMSSPRP,shrunken log2 fold change,-0.000155
RRIRRRPPRLPRPRPRPFERPRP,shrunken log2 fold change,0.0145
RRIRIRPPRLPRPRPRPTHRPRP,shrunken log2 fold change,-0.322
RRIRCRPPRLPRPRPRPNYDPRP,shrunken log2 fold change,-0.672
RRIRERPPRLPRPRPRPFVTPRP,shrunken log2 fold change,-0.865
RRIRQRPPRLPRPRPRPNHNPRP,shrunken log2 fold change,-0.893
RRIRQRPPRLPRPRPRPANCPRP,shrunken log2 fold change,0.0322
RRIRPRPPRLPRPRPRPRMVPRP,shrunken log2 fold change,-0.263
RRIRTRPPRLPRPRPRPEIQPRP,shrunken log2 fold change,-0.00275
RRIRCRPPRLPRPRPRPPKAPRP,shrunken log2 fold change,-0.112
RRIRHRPPRLPRPRPRPFHNPRP,shrunken log2 fold change,-0.305
RRIRSRPPRLPRPRPRPDRLPRP,shrunken log2 fold change,-0.168
RRIRERPPRLPRPRPRPMIIPRP,shrunken log2 fold change,-0.317
